Experiments:
Assay in all cases: cell-based or functional assay
[1] = biological target: HIV-1JRCSF Env (HIV-1 JRCSF) (UniProt P20871)
[2] = biological target: HIV-1ZM109 Env (HIV-1 ZM109)
HIV-1AD8 Env (HIV-1 AD8) = biological target: HIV-1AD8 Env (HIV-1 AD8)
[3] = biological target: HIV-1BG505 Env (HIV-1 BG505)
[4] = biological target: HIV-1CM244 Env (HIV-1 CM244)
HIV-1YU2 Env (HIV-1 YU2) = HIV-1YU2 Env (HIV-1 YU2) (UniProt P35961)
[5] = biological target: HIV-1C1086 Env (HIV-1 C1086)

Chain of HIV-1YU2 Env (HIV-1 YU2) (P35961 32-843 limits assumed): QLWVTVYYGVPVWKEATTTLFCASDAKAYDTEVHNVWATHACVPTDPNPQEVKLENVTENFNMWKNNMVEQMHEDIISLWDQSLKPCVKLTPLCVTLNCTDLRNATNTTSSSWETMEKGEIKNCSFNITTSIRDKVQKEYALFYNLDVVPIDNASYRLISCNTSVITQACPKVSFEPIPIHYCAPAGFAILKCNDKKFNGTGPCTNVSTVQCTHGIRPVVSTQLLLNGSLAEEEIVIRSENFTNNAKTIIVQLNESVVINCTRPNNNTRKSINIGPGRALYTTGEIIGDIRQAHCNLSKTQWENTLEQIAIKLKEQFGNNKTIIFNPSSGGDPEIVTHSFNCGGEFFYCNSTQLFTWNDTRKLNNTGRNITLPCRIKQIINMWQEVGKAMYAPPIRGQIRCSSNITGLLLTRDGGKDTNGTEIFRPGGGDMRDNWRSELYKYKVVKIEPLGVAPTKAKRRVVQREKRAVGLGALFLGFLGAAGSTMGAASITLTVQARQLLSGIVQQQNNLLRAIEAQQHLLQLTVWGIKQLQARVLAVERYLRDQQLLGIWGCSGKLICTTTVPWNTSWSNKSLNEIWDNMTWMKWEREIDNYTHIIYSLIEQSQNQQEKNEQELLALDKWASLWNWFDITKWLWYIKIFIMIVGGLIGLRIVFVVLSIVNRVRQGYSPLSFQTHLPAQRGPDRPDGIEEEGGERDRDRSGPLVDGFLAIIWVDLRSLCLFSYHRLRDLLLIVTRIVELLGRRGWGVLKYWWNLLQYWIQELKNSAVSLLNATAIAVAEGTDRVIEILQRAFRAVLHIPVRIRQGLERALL
Chain of HIV-1JRCSF Env (HIV-1 JRCSF) (P20871 32-848 limits assumed): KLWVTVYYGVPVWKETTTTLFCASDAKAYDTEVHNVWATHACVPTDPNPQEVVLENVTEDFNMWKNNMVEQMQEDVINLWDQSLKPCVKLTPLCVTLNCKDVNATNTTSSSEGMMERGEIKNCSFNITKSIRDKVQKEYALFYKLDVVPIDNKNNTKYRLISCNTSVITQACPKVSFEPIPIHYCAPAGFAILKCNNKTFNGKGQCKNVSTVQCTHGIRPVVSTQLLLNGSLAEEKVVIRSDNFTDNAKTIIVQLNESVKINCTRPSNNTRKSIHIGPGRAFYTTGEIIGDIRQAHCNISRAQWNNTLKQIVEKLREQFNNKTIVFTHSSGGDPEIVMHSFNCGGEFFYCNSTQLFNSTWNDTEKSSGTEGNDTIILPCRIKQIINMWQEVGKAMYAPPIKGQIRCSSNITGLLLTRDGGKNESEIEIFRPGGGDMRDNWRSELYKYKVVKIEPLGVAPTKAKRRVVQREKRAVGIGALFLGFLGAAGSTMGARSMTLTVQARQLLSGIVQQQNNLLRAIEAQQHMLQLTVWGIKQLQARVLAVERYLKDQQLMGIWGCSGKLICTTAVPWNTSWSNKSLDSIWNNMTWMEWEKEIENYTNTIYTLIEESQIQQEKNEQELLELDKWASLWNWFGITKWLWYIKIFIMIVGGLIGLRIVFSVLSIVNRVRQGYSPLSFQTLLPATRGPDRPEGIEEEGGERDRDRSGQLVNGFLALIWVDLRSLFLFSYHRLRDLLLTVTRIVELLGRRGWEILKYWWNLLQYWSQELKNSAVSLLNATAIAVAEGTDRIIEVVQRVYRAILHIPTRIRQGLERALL

17b-CD4 conjugate
Neutralization IC50 [1]: 0.807 µg/mL
Neutralization IC50 [2]: 0.113 µg/mL
Neutralization IC50 (HIV-1AD8 Env (HIV-1 AD8)): 0.877 µg/mL
Neutralization IC50 [3]: 2.64 µg/mL
Neutralization IC50 [4]: 0.609 µg/mL
Neutralization IC50 (HIV-1YU2 Env (HIV-1 YU2)): 0.082 µg/mL
Neutralization IC50 [5]: 0.269 µg/mL

— patent publication US20240285790A1
